According to paper PMC10539340, “A common human MLKL polymorphism confers resistance to negative regulation by phosphorylation” (Nature Communications, 2023):
Numbering of substitutions follows the chain as printed. Numbers in names are those of the source.

B1: Recombinant full-length human MLKL (residue 2-471), wild type (natural protein, UniProt Q8NB16 2-471, looked up)
chain: ENLKHIITLGQVIHKRCEEMKYCKKQCRRLGHRVLGLIKPLEMLQDQGKRSVPSEKLTTAMNRFKAALEEANGEIEKFSNRSNICRFLTASQDKILFKDVNRKLSDVWKELSLLLQVEQRMPVSPISQGASWAQEDQQDADEDRRAFQMLRRDNEKIEASLRRLEINMKEIKETLRQYLPPKCMQEIPQEQIKEIKKEQLSGSPWILLRENEVSTLYKGEYHRAPVAIKVFKKLQAGSIAIVRQTFNKEIKTMKKFESPNILRIFGICIDETVTPPQFSIVMEYCELGTLRELLDREKDLTLGKRMVLVLGAARGLYRLHHSEAPELHGKIRSSNFLVTQGYQVKLAGFELRKTQTSMSLGTTREKTDRVKSTAYLSPQELEDVFYQYDVKSEIYSFGIVLWEIATGDIPFQGCNSEKIRKLVAVKRQQEPLGEDCPSELREIIDECRAHDPSVRPSVDEILKKLSTFSK
notes: Bacmids were made from pFastBac Htb vectors; also called MLKL^WT; hMLKL; source: Sf21 insect cells, purified (glutathione agarose, size-exclusion chromatography)
B2: Recombinant full-length human MLKL (residue 2-471) S83D (natural protein, UniProt Q8NB16 2-471, looked up)
chain: B1 chain with S82D
notes: human MLKL, residues 2-471, with the phosphomimetic S83D; Bacmids were made from pFastBac Htb vectors; also called MLKL^S83D; source: Sf21 insect cells, purified (glutathione agarose, size-exclusion chromatography)
B3: Recombinant full-length human MLKL (residue 2-471) S132P (natural protein, UniProt Q8NB16 2-471, looked up)
chain: B1 chain with S131P
notes: human MLKL, residues 2-471, with the natural polymorphism p.Ser132Pro; Bacmids were made from pFastBac Htb vectors; also called MLKL^S132P; p.Ser132Pro; source: Sf21 insect cells, purified (glutathione agarose, size-exclusion chromatography)
B4: Recombinant full-length human MLKL (residue 2-471) S83D,S132P (natural protein, UniProt Q8NB16 2-471, looked up)
chain: B1 chain with S82D, S131P
notes: human MLKL, residues 2-471, compound mutant of the phosphomimetic S83D and the polymorphism S132P; Bacmids were made from pFastBac Htb vectors; also called MLKL^(S83D, S132P); MLKL^S83D,S132P; source: Sf21 insect cells, purified (glutathione agarose, size-exclusion chromatography)

Biological target: the molecule itself
Assay: SEC; HiLoad 16/600 Superdex 200 pg column after glutathione agarose; fractions at elution volume 55-63 ml taken as tetramers and pooled

Protein | stoichiometry N
B1 | 4
B2 | 4
B3 | 4
B4 | 4
